Measurements as given in patent US20240082360A1, “METHODS TO TREAT HEPATITIS DELTA VIRAL INFECTIONS” (Eiger Biopharmaceuticals, Inc., priority 2019, published 2024).

Key:
HDV [1] = conditions: cited from earlier work
HDV [2] = experiment: Phase 2 LIMT study: Lambda for 48 weeks in HDV patients, with two liver-biopsy case reports; format: in vivo, human; set-up: key to fibrosis score (ISHAK) in liver biopsy following Lambda treatment / fibrosis score (ISHAK) in post-treatment biopsy: F5: incomplete cirrhosis; F1: mild portal fibrosis
From the text: See also International Application No. PCT/US2019/048038 for description of this therapy. Impact of Lambda therapy on liver histology was not assessed in the LIMT study. In this example, two case reports of regression of liver fibrosis following treatment in HDV patients from the LIMT study are provided.
Two patients from the LIMT study, who had liver biopsies prior to study randomization, treated with subcutaneous injections of Lambda 180 mcg once weekly for 48 weeks, followed by a 24 week follow-up period, were evaluated with liver biopsy 18 months after last Lambda injection. Liver biopsies, staged according to the ISHAK scoring system, were compared with results of historical biopsies of the patients. HDV RNA viral load and ALT levels were assessed at baseline (BL), end of treatment (EOT) and end of study (EOS). Fibroscan® was performed at BL and EOS.
FibroScan is a specialized ultrasound machine that measures fibrosis (scarring) and steatosis (fatty change) in the liver. The Fibroscan device (Echosens) works by measuring shear wave velocity. In this technique, a 50-MHz wave is passed into the liver from a small transducer on the end of an ultrasound probe. The probe also has a transducer on the end that can measure the velocity of the shear wave (in meters per second) as this wave passes through the liver. The shear wave velocity can then be converted into liver stiffness, which is expressed in kilopascals. Essentially, the technology measures the velocity of the sound wave passing through the liver and then converts that measurement into a liver stiffness measurement; the entire process is often referred to as liver ultrasonographic elastography. See additional discussion in Afdhal, N.H., Gastroenterol Hepatol (N Y). 8(9): 605-607 (2012).

HDV [3] = conditions: Lambda for 48 weeks; patients with HDV and compensated liver disease; cited from earlier work
HDV [4] = conditions: HBV/HDV co-infected mice; four weeks; cited from earlier work
HBV = conditions: cited from earlier work

Row | Molecule | patients with undetectable HDV RNA (HDV [1]; 24 weeks post-treatment follow-up) [%] | HDV patients with undetectable HDV RNA (HDV [1]; end of 48 weeks treatment, 180 mcg monotherapy, Robogene 2.0 assay) [%] | HDV RNA level at EOS (HDV [2]; Patient 1, 24 week follow-up after 48 weeks Lambda, BL 3.7 log10) [log10] | Fibroscan score at EOS (HDV [2]; Patient 1, BL 20 kPa) [kPa] | ALT at EOS (HDV [2]; Patient 1, BL 169 U/L) [U/L] | ALT at EOT (HDV [2]; Patient 1, BL 169 U/L) [U/L] | HDV RNA level at EOT (HDV [2]; Patient 1, Lambda 180 mcg once weekly 48 weeks, BL 3.7 log10) | fibrosis score (ISHAK) in liver biopsy following Lambda treatment (HDV [2]; Patient 1, biopsy 18 months after last Lambda injection, historical biopsy F5) | HDV RNA at EOS (HDV [2]; Patient 2, 24 week follow-up after 48 weeks Lambda, BL 4.9 log10) [log10] | Fibroscan score at EOS (HDV [2]; Patient 2, BL 7.7 kPa) [kPa] | ALT at EOS (HDV [2]; Patient 2, BL 159 U/L) [U/L] | ALT at EOT (HDV [2]; Patient 2, BL 159 U/L) [U/L] | HDV RNA at EOT (HDV [2]; Patient 2, Lambda 180 mcg once weekly 48 weeks, BL 4.9 log10) | fibrosis score (ISHAK) in post-treatment biopsy (HDV [2]; Patient 2, biopsy 18 months after last Lambda injection, historical biopsy F4 (marked bridging fibrosis)) | durable virologic response (HDV RNA below limit of quantification at 24 weeks post-treatment) (HDV [3]) [%] | reduction in HDV-RNA levels (HDV [4]) [log] | difference between pegylated interferon alfa and pegylated interferon lambda treatment (HBV; end of the treatment period) | declines in viremia as compared to pegylated interferon alfa (HBV; midpoint of treatment (24 weeks)) | virologic rebound (HBV; post-treatment, versus pegylated interferon alfa)
1 | interferon alfa | 0 | 13 | – | – | – | – | – | – | – | – | – | – | – | – | – | – | – | – | –
2 | Lambda: pegylated form of interferon lambda, a type III interferon signalling through interferon lambda receptors (protein, UniProt Q8IU54 20-200, looked up, PEG (peginterferon lambda-1a), pegylated form of interferon lambda, a type III interferon signalling through interferon lambda receptors) Interferon lambda-1: GPVPTSKPTTTGKGCHIGRFKSLSPQELASFKKARDALEESLKLKNWSCSSPVFPGNWDLRLLQVRERPVALEAELALTLKVLEAAAGPALEDVLDQPLHTLHHILSQLQACIQPQPTAGPRPRGRLHHWLHRLQEAPKKESAGCLEASVTFNLFRLLTRDLKYVADGNLCLRTSTHPEST | – | – | 2.6 | 9.9 | 54 | 55 | undetectable | F1 | 3.6 | 11.1 | 162 | 44 | undetectable | F1 | 36 | 1.5 | no difference | more pronounced declines in viremia | greater virologic rebound
